For orientation: Kd means a measure of binding affinity in units of concentration. The low end stands for higher affinity, the high end for lower affinity. The term koff denotes the rate constant with which the complex falls apart. Low values mean slow dissociation, high ones fast dissociation. Usually kon stands for a measure of how fast the partners come together. As usually defined, the stoichiometry N is a count of units in the complex or per binding partner.

Data on four molecules can be found in PMC4771712, “Deciphering Mode of Action of Functionally Important Regions in the Intrinsically Disordered Paxillin (Residues 1-313) Using Its Interaction with FAT (Focal Adhesion Targeting Domain of Focal Adhesion Kinase)” (PLoS ONE, 2016).

The target of assay [1] is T1, GST fusion of the FAT (focal adhesion targeting) domain of focal adhesion kinase, human FAK 892-1052 (human, UniProt Q05397 892-1052).
T1 construct: focal adhesion kinase (FAK), human, FAT domain, residues 892-1052; Cloned into pGEX4T1; For the pull-down provided by Dr. M. K. Hoellerer; for bio-layer interferometry the same construct was synthesised (GeneArt) and made by the same procedure; also called GST-FAT; GST labeled FAT; source: E. coli BL21 (DE3), purified using GST-4B beads
T1 sequence (looked up): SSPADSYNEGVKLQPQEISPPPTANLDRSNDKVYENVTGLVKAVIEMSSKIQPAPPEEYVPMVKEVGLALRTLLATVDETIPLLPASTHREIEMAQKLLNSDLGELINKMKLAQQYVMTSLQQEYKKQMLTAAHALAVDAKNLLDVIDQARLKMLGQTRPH
The assay is described as follows: BLI; GST-FAT immobilised on Anti-GST biosensors (20 μg/ml in PBS), paxillin constructs as analytes in PBS with Tween 20 (0.05%) and BSA (1%), Octet RED96, global fitting (B2 1:1 model, C35_1 to C35_3 2:1 model). The following applies: both partners purified. Background: In BLI a coated tip is dipped into the sample, and binding shifts an interference pattern.

In assay [2] the target is T1, GST fusion of the FAT (focal adhesion …). The description is as above. The following applies: both partners purified. This is another data set of the same source.

B1: paxillin Construct C35_3 (105-189) (domain or fragment, human, UniProt P49023-2 105-189, looked up)
chain: GSPCSRVGEEEHVYSFPNKQKSAEPSPTVMSTSLGSNLSELDRLLLELNAVQHNPPGFPADEANSSPPLPGALSPLYGVPETNSP
notes: human paxillin residues 105-189; Cloned into pET28a; source: E. coli BL21DE3, purified
In assay [1], B1 returned a dissociation constant Kd of 1.45 µM, a koff of 0.106 s⁻¹ and an on-rate constant (kon) of 72900 M⁻¹ s⁻¹. Besides, the “stoichiometry N” value in assay [2] came out at 2 construct per FAT.

B2: paxillin Construct C35_2 (79-189) (domain or fragment, human, UniProt P49023-2 79-189, looked up)
chain: QQPQSSSPVYGSSAKTSSVSNPQDSVGSPCSRVGEEEHVYSFPNKQKSAEPSPTVMSTSLGSNLSELDRLLLELNAVQHNPPGFPADEANSSPPLPGALSPLYGVPETNSP
notes: human paxillin residues 79-189; Cloned into pET28a; source: E. coli BL21DE3, purified
Regarding B2, in assay [1], the dissociation constant (Kd) came out at 16.9 µM, the koff is 0.164 s⁻¹ and the kon came to 9710 M⁻¹ s⁻¹. In addition, the “stoichiometry N” value in assay [2] is 2 construct per FAT.

B3: paxillin Construct C35_1 (54-189) (domain or fragment, human, UniProt P49023-2 54-189, looked up)
chain: SSEALNGTILDPLDQWQPSSSRFIHQQPQSSSPVYGSSAKTSSVSNPQDSVGSPCSRVGEEEHVYSFPNKQKSAEPSPTVMSTSLGSNLSELDRLLLELNAVQHNPPGFPADEANSSPPLPGALSPLYGVPETNSP
notes: human paxillin residues 54-189; Cloned into pET28a; source: E. coli BL21DE3, purified
Turning to B3, in assay [1], the dissociation constant (Kd) is 5.39 µM, the koff came out at 0.121 s⁻¹ and the on-rate constant (kon) was 22500 M⁻¹ s⁻¹. Moreover, the “stoichiometry N” value in assay [2] came out at 2 construct per FAT.

B4: paxillin construct B2, expressed in E. coli for bio-layer interferometry (domain or fragment)
chain: SSEALNGTILDPLDQWQPSSSRFIHQQPQSSSPVYGSSAKTSSVSNPQDSVGSPCSRVGEEEHVYSFPNKQKSAEPSPTVMSTSLGSNLSELDRLLLELNAVQHNPPGFPADEANSSPPLPGALSPLYGVPETNSPLGGKAGPLTKEKPKRNGGRGLEDVRPSVESLLDELESSVPSPVPAITVNQGEMSSPQRVTSTQQQTRISASSATRELDELMASLSDFKFM
B4: in assay [1], the Kd was found to be 0.0361 µM, the off-rate (koff) was found to be 0.00171 s⁻¹ and the kon amounted to 47500 M⁻¹ s⁻¹. Also, in assay [2], the “stoichiometry N” value worked out at 1 construct per FAT.
